The values that follow are results of earlier work, collected in publication PMC4077824, “Conserved Prosegment Residues Stabilize a Late-Stage Folding Transition State of Pepsin Independently of Ground States” (PLoS ONE, 2014).

This data set relates to αLP. An excerpt: General thermodynamic and kinetic features of protein folding are known, such as that the natively folded conformation of a protein is thermodynamically stabilized and that there is a relationship between topology and folding rate, which holds for both two-state and multi-state folding proteins, [3]. […] In the case of pepsin, Rp was characterized by a ΔG unf of 5.8 kcal/mol, a 10% increase in unordered secondary structure and identical tertiary structure to Np (both yield R g ∼20 Å).

B1: αLP: serine peptidase αLP (alpha-lytic protease) (protein, UniProt P00778 200-397, looked up)
Alpha-lytic protease: ANIVGGIEYSINNASLCSVGFSVTRGATKGFVTAGHCGTVNATARIGGAVVGTFAARVFPGNDRAWVSLTSAQTLLPRVANGSSFVTVRGSTEAAVGAAVCRSGRTTGYQCGTITAKNVTANYAEGAVRGLTQGNACMGRGDSGGSWITSAGQAQGVMSGGNVQSNGNNCGIPASQRSSLFERLQPILSQYGLSLVTG
Regarding B1, the “ΔG N-I” value (native state relative to an intermediate state, ref [8]) was -4 kcal/mol. Besides, the “stability of intermediate over native state” value (αLP intermediate more stable than native state, ref [4]) is 4 kcal/mol. Besides, the ΔG unf (αLP intermediate, ref [4]) is 1 kcal/mol.
